Test results reported in US20120316071A1 (published 2012).
Substitutions are numbered along the chain they refer to. Numbers in names are those of the source.

How the values were obtained:
[1] = biological target: T1, Recombinant Human DLL4 (R&D Systems Cat#1506-D4/CF) (human, UniProt Q9NR61 27-524); assay: MSD multispot ECL, antigen spotted on plate, Fab 11 nM; blank spot 212
T1 construct: Bought from R&D Systems; also called rHuman DLL4; delta-like protein 4

[2] = biological target: T2, rHuman EGF R/Fc Chimera, CF (R&D Systems Cat#344-ER) (human, UniProt P00533 25-645); assay: as above
T2 construct: Bought from R&D Systems; also called epidermal growth factor receptor (EGF R); not shown: Fc of the bought chimera

[3] = biological target: T3, rHuman Notch-1/Fc Chimera, CF (R&D Systems Cat#3647-TK) (human, UniProt P46531 19-526); assay: as above
T3 construct: Bought from R&D Systems; not shown: Fc of the bought chimera

[4] = biological target: T4, rHuman CD44/Fc Chimera, CF (R&D Systems Cat#3660-CD) (human, UniProt P16070 21-220); assay: as above
T4 construct: Bought from R&D Systems; not shown: Fc of the bought chimera

[5] = biological target: T5, rHuman IGF-1 sR, (IGF-1 sR), CF (R&D Systems Cat#391-GR) (human, UniProt P08069 31-932); assay: as above
T5 construct: Bought from R&D Systems and called a soluble receptor; also called insulin-like growth factor-1 soluble receptor

[6] = biological target: T6, rHuman P-Cadherin/Fc Chimera, CF (R&D Systems Cat#861-PC) (human, UniProt P22223 108-654); assay: as above
T6 construct: Bought from R&D Systems; not shown: Fc of the bought chimera

[7] = biological target: T7, rHuman Erythropoietin R/Fc Chimera, CF (R&D Systems Cat#963-ER) (human, UniProt P19235 25-250); assay: as above
T7 construct: Bought from R&D Systems; also called EPO R/Fc; Epo R/Fc chimera; not shown: Fc of the bought chimera
T7 sequence (looked up): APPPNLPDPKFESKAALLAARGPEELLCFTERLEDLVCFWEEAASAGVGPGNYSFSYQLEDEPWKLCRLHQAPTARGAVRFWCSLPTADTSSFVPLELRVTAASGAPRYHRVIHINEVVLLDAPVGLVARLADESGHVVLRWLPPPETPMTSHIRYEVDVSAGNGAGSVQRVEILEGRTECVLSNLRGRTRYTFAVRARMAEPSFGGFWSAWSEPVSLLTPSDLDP

[8] = biological target: T8, rHuman IGF-1 sR, CF (R&D Systems Cat#391-GR) (human, UniProt P08069 31-932); assay: ECL Multispot (MSD) assay, antigen spotted on plate, 10 nM Fab; blank spot of this row 472
T8 construct: Bought soluble receptor; The column head prints only 'IGF-1'; also called insulin-like growth factor-1 soluble receptor

[9] = biological target: T9, rHuman P-Cadherin/Fc Chimera, CF (R&D Systems Cat#861-PC) (human, UniProt P22223 108-654); assay: as above
T9 construct: Bought reagent; Fc part of the bought chimera not given

[10] = biological target: T10, rHuman Erythropoietin R/Fc Chimera, CF (R&D Systems Cat#963-ER) (human, UniProt P19235 25-250); assay: as above
T10 construct: Bought reagent; also called EPO R; EPO R/Fc; Fc part of the bought chimera not given
T10 sequence (looked up): T7 sequence (looked up)

[11] = biological target: T11, rHuman ErbB2/Fc Chimera, CF (R&D Systems Cat#1129-ER) (human, UniProt P04626 23-652); assay: as above
T11 construct: Bought reagent; also called human epidermal growth factor 2 receptor; Fc part of the bought chimera not given

[12] = biological target: T12, rHuman EGF R/Fc Chimera, CF (R&D Systems Cat#344-ER) (human, UniProt P00533 25-645); assay: as above
T12 construct: Bought reagent; also called epidermal growth factor receptor; Fc part of the bought chimera not given

[13] = biological target: T13, rHuman HGF R/c-MET/Fc Chimera, CF (R&D Systems Cat#358-MT/CF) (human, UniProt P08581 25-932); assay: as above
T13 construct: Bought reagent; also called HGF R/Fc; hepatocyte growth factor receptor; Fc part of the bought chimera not given
T13 sequence (P08581 25-932, change not shown): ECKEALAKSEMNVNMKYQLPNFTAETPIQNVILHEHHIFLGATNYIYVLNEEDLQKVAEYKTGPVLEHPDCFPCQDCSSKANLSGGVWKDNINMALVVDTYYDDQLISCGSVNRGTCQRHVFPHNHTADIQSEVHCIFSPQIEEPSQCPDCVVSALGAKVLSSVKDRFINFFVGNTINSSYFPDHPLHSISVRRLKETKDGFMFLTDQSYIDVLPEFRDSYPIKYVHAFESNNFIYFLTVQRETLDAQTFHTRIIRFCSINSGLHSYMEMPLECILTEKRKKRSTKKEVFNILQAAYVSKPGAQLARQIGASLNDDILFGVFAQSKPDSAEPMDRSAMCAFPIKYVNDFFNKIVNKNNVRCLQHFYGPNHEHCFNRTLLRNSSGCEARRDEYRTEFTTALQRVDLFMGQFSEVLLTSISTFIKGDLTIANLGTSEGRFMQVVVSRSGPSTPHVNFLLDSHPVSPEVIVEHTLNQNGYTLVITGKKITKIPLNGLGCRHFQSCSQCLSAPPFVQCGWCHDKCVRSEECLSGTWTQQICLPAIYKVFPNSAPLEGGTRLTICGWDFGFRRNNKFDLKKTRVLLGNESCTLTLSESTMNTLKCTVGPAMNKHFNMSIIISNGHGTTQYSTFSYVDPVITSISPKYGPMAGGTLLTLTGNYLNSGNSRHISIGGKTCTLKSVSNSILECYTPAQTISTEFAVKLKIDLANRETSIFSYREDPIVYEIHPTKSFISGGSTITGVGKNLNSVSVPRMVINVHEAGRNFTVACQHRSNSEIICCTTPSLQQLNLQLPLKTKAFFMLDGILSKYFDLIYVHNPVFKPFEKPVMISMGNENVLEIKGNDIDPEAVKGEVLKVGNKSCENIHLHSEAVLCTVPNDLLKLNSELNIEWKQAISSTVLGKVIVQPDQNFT

[14] = biological target: T14, rHuman Notch-1/Fc Chimera, CF (R&D Systems Cat#3647-TK) (human, UniProt P46531 19-526); assay: as above
T14 construct: Bought reagent; Fc part of the bought chimera not given

[15] = biological target: T15, rHuman CD44/Fc Chimera, CF (R&D Systems Cat#3660-CD) (human, UniProt P16070 21-220); assay: as above
T15 construct: Bought reagent; Fc part of the bought chimera not given

[16] = biological target: T16, Recombinant Human DLL4 (R&D Systems Cat#1506-D4/CF) (human, UniProt Q9NR61 27-524); assay: Multispot ECL (MSD), antigen spotted on plate, Fab 31.3 nM; blank spot 250
T16 construct: Bought recombinant protein; also called rHuman DLL4; delta-like protein 4

[17] = biological target: T17, rHuman IGF-1 sR, CF (R&D Systems Cat#391-GR) (human, UniProt P08069 31-932); assay: as above
T17 construct: Bought recombinant soluble receptor; also called insulin-like growth factor-1 soluble receptor

[18] = biological target: T18, rHuman Erythropoietin R/Fc Chimera, CF (R&D Systems Cat#963-ER) (human, UniProt P19235 25-250); assay: as above
T18 construct: Bought recombinant protein; also called EPO R/Fc; Epo R; Fc part of the bought chimera not given
T18 sequence (looked up): T7 sequence (looked up)

B1: Fab VH1-46_IGHD3-10*01_IGHJ4*01 & B3_IGKJ1*01 (Fab, V domains shown)
VH: QVQLVQSGAEVKKPGASVKVSCKASGYTFTSYYMHWVRQAPGQGLEWMGIINPSGGSTSYAQKFQGRVTMTRDTSTSTVYMELSSLRSEDTAVYYCAREYYYGSGSYYNDYFDYWGQGTLVTVSS
VL: not shown
notes: Tested as a Fab made in E. coli; VH was cloned into Plasmid A (CH1 constant region, His6 and Flag tags); The kappa VL was cloned into Plasmid C (kappa CL)
For B1, the ECL signal [1] was 254, the ECL signal [2] was 201 and the ECL signal [3] was 404. For the same binder, the ECL signal [4] was 296, the ECL signal [5] was 289 and the ECL signal [6] was 270. It also gave an ECL signal [7] of 1820.

B2: Fab VH1-46_IGHD6-6*01_IGHJ1*01 S102A/S103P/S104F (APF) & L6_IGKJ1*01 (Fab, V domains shown)
VH: QVQLVQSGAEVKKPGASVKVSCKASGYTFTSYYMHWVRQAPGQGLEWMGIINPSGGSTSYAQKFQGRVTMTRDTSTSTVYMELSSLRSEDTAVYYCAREEYAPFSAEYFQHWGQGTLVTVSS
VL: not shown
notes: Tested as a Fab made in E. coli; also called H:APF & L:wt; APF triple mutant
Work on B2 yielded an ECL signal [8] of 434, an ECL signal [9] of 433 and an ECL signal [10] of 480. The ECL signal [11] was 391, the ECL signal [12] was 428 and the ECL signal [13] was 426. The ECL signal [14] was 299 and the ECL signal [15] was 400.

B3: Fab VH1-46_IGHD6-13*01_IGHJ4*01 & B3_IGKJ1*01 (Fab, V domains shown)
VH: B2 VH with E100G, A102S, P103S, F104S, S105W, A106Y, E107D, Q110D, H111Y
VL: not shown
notes: Germline Fab made in E. coli; VH was cloned into Plasmid A (CH1, His6 and Flag tags) and the kappa VL into Plasmid C (kappa CL)
Binder B3 has an ECL signal [16] of 528, an ECL signal [17] of 385 and an ECL signal [18] of 7880.
